In patent US10562947B2, “Compositions and methods for preventing or treating diseases, conditions or processes characterized by aberrant fibroblast proliferation and extracellular matrix deposition” (MOERAE MATRIX, INC., priority 2011, dated 2020):
Where a SMILES comes first, the peptide text is derived from it.

Legend:
Abl(M351T)(h) = Abl(M351T)(h) (Homo sapiens, UniProt P00519, M351T); assay: Kinase Profiling Assay; assay type: biochemical; settings: 100 μM peptide
In short: (§1)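 Off-target screen of MK2 peptide inhibitors, 266 human kinases, n = 2 per activity measurement.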

EphA4(h) = EphA4(h) (Homo sapiens, UniProt P54764); assay: Kinase Profiling Assay; assay type: biochemical; settings: 100 μM peptide
In short: as §1

SIK(h) = SIK(h) (Homo sapiens, UniProt P57059); assay: Kinase Profiling Assay; assay type: biochemical; settings: 100 μM peptide
In short: as §1

Ret(V804L)(h) = biological target: T1, Ret(V804L)(h) (Homo sapiens, UniProt P07949, V804L); assay: Kinase Profiling Assay; assay type: biochemical; settings: 100 μM peptide
T1 construct: purchased Millipore (IC50 Profiler Express service)
In short: as §1

PKG1β(h) = biological target: T2, PKG1β(h) (Homo sapiens, UniProt Q13976); assay: Kinase Profiling Assay; assay type: biochemical; settings: 100 μM peptide
T2 construct: purchased Millipore (IC50 Profiler Express service)
T2 sequence (Q13976 1-686 isoform Q13976-2): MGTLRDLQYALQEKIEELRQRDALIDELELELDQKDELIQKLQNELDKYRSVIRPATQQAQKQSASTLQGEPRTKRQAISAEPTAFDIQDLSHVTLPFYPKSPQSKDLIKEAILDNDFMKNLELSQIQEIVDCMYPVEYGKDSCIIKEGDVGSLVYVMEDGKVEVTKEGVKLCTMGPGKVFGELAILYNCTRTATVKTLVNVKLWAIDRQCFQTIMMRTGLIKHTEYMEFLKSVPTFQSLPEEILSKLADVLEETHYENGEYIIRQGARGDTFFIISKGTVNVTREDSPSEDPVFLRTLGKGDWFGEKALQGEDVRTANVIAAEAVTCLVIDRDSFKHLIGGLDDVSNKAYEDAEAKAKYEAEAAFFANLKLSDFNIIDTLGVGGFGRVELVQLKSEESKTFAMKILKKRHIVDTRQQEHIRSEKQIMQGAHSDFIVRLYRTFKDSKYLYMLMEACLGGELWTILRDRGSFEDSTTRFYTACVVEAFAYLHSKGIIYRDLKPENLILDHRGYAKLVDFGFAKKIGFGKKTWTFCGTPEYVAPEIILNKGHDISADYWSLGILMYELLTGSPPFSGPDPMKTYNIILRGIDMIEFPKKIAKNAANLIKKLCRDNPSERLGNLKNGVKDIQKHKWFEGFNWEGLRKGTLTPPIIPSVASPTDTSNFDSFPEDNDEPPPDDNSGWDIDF
In short: as §1

MRCKα(h) = MRCKα(h) (Homo sapiens, UniProt Q5VT25); assay: Kinase Profiling Assay; assay type: biochemical; settings: 100 μM peptide
In short: as §1

TLK2(h) = TLK2(h) (Homo sapiens, UniProt Q86UE8); assay: Kinase Profiling Assay; assay type: biochemical; settings: 100 μM peptide
In short: as §1

PKA(h) = PKA(h) (Homo sapiens, UniProt P17612); assay: Kinase Profiling Assay; assay type: biochemical; settings: 100 μM peptide
In short: as §1

Abl(T315I)(h) = Abl(T315I)(h) (Homo sapiens, UniProt P00519, T315I); assay: Kinase Profiling Assay; assay type: biochemical; settings: 100 μM peptide
In short: as §1

PKD2(h) = biological target: T3, PKD2(h) (Homo sapiens, UniProt Q9BZL6); assay: Kinase Profiling Assay; assay type: biochemical; settings: 100 μM peptide
T3 construct: purchased Millipore (IC50 Profiler Express service)
T3 sequence (Q9BZL6 1-878): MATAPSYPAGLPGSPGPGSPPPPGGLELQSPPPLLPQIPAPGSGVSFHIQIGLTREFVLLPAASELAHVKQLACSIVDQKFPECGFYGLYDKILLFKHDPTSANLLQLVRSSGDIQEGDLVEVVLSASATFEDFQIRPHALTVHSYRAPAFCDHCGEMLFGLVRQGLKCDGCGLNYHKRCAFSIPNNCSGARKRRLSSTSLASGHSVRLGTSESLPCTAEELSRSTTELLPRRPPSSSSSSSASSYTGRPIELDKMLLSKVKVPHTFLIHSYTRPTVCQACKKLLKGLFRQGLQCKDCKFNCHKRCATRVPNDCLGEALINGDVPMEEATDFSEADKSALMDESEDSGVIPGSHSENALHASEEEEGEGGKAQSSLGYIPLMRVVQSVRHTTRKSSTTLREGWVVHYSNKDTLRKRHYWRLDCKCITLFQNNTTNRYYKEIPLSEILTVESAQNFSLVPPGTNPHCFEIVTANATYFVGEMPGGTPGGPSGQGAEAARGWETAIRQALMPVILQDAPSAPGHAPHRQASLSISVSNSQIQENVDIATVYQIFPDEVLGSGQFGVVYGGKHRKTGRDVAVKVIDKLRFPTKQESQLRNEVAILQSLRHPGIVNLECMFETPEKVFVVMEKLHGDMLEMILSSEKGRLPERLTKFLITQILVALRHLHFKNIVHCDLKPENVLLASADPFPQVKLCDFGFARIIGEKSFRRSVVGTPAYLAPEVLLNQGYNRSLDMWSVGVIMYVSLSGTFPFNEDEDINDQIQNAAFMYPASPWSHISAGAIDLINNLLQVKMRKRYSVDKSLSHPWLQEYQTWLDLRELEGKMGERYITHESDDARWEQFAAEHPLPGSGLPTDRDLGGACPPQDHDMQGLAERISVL
In short: as §1

PKBγ(h) = PKBγ(h) (Homo sapiens, UniProt Q9Y243); assay: Kinase Profiling Assay; assay type: biochemical; settings: 100 μM peptide
In short: as §1

TrkA(h) = TrkA(h) (Homo sapiens, UniProt P04629); assay: Kinase Profiling Assay; assay type: biochemical; settings: 100 μM peptide
In short: as §1

Met(D1246H)(h) = Met(D1246H)(h) (Homo sapiens, UniProt P08581, D1228H); assay: Kinase Profiling Assay; assay type: biochemical; settings: 100 μM peptide
In short: as §1

Ret(h) = biological target: T4, Ret(h) (Homo sapiens, UniProt P07949); assay: Kinase Profiling Assay; assay type: biochemical; settings: 100 μM peptide
T4 construct: purchased Millipore (IC50 Profiler Express service)
In short: as §1

Fms(h) = Fms(h) (Homo sapiens, UniProt P07333); assay: Kinase Profiling Assay; assay type: biochemical; settings: 100 μM peptide
In short: as §1

Arg(h) = Arg(h) (Homo sapiens, UniProt P42684); assay: Kinase Profiling Assay; assay type: biochemical; settings: 100 μM peptide
In short: as §1

[1] = tested on: human fetal lung fibroblasts (IMR-90); assay: TGF-β1-induced myofibroblast activation in IMR-90 cells, α-SMA immunoblot; assay type: cell-based; settings: 1 h pre-treatment, TGF-β1 2 ng/ml 48 h
Excerpt: Cell lysates were immunoblotted against antibodies for α-SMA (a marker for myofibroblast activation) and GAPDH (loading control).

[2] = tested on: human fetal lung fibroblasts (IMR-90); assay: TGF-β-mediated fibronectin expression in IMR-90 cells; assay type: cell-based; settings: 1 h pre-treatment, TGF-β1 2 ng/ml 72 h
Description: Fibronection was measured as secreted fragments in the conditioned media. Equal amounts (14 μg) of total proteins from the conditioned media were loaded in each lane.

EphA4(h), sequence (P54764 20-986): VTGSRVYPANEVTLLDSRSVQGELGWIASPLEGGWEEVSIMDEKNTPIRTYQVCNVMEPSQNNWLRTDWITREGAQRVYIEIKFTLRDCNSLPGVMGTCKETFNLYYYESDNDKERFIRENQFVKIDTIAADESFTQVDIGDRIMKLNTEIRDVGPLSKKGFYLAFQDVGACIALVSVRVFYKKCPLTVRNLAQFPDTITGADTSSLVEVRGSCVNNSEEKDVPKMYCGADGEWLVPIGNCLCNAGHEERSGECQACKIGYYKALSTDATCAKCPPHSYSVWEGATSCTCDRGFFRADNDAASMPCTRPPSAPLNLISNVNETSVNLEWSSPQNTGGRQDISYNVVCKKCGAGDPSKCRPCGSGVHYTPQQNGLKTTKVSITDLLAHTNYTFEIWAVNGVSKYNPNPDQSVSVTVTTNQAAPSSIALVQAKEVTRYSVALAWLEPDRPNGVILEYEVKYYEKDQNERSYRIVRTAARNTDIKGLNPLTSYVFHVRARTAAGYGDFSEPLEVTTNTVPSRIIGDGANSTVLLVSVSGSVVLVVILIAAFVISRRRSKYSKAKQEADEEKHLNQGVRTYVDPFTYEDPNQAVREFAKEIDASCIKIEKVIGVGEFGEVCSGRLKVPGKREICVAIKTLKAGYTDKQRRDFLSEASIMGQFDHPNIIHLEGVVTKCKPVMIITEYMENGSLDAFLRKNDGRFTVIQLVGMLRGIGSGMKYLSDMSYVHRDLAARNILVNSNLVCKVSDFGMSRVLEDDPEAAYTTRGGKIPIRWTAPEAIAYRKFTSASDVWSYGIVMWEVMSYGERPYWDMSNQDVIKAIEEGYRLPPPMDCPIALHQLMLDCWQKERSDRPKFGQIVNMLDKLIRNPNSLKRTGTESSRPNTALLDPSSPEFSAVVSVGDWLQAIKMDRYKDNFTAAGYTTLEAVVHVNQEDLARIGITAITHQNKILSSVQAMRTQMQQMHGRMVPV
TLK2(h), sequence (Q86UE8 whole entry): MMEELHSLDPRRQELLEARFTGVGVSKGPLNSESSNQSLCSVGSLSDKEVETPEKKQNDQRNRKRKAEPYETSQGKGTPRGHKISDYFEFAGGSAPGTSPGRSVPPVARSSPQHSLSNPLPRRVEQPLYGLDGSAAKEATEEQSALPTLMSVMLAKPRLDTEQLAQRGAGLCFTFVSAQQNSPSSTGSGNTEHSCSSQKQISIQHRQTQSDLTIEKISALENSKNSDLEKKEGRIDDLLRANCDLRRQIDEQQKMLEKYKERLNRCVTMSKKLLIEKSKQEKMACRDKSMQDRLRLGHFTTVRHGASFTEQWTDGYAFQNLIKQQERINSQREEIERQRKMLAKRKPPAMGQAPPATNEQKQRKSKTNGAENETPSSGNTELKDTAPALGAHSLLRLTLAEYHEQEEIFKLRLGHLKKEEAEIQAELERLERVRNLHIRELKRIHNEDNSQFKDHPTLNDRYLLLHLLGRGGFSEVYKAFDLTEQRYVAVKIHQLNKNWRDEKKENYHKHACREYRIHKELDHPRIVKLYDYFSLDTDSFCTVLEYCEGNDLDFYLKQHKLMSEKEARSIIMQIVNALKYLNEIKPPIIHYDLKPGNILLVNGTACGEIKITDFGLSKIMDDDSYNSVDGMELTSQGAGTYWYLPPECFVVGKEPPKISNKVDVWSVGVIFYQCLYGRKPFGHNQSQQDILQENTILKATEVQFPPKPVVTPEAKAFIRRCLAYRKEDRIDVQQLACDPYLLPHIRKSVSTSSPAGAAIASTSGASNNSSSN
Arg(h), sequence (P42684 whole entry): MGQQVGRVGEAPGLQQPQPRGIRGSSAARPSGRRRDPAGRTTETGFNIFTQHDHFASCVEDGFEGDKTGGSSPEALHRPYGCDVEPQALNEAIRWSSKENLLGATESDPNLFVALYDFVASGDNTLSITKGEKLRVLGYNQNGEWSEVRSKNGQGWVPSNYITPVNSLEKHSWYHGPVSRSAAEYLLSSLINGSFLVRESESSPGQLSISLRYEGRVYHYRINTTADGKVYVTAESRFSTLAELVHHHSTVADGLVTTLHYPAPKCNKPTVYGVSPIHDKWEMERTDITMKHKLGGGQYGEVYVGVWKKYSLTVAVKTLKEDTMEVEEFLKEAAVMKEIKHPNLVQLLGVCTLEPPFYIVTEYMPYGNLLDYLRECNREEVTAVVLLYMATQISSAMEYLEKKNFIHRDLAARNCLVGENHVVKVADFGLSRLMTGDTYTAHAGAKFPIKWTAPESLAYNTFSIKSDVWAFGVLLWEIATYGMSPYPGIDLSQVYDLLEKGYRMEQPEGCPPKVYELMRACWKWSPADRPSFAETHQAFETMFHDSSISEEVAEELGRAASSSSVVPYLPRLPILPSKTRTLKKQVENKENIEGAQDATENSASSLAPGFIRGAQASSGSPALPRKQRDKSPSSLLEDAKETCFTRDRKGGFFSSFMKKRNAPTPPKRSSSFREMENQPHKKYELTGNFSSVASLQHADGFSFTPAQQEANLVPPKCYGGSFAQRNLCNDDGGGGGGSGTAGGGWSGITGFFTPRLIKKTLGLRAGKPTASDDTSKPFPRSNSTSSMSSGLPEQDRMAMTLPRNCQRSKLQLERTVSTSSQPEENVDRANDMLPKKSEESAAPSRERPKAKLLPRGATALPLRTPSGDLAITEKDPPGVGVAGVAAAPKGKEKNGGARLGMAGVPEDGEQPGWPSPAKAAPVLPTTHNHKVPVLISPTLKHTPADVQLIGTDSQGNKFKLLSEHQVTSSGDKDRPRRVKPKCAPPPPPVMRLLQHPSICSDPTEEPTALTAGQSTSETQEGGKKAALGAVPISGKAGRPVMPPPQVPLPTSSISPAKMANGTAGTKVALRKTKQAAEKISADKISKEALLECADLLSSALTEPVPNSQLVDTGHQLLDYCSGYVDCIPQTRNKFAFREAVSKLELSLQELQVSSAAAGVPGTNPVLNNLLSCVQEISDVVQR
TrkA(h), sequence (P04629 33-796): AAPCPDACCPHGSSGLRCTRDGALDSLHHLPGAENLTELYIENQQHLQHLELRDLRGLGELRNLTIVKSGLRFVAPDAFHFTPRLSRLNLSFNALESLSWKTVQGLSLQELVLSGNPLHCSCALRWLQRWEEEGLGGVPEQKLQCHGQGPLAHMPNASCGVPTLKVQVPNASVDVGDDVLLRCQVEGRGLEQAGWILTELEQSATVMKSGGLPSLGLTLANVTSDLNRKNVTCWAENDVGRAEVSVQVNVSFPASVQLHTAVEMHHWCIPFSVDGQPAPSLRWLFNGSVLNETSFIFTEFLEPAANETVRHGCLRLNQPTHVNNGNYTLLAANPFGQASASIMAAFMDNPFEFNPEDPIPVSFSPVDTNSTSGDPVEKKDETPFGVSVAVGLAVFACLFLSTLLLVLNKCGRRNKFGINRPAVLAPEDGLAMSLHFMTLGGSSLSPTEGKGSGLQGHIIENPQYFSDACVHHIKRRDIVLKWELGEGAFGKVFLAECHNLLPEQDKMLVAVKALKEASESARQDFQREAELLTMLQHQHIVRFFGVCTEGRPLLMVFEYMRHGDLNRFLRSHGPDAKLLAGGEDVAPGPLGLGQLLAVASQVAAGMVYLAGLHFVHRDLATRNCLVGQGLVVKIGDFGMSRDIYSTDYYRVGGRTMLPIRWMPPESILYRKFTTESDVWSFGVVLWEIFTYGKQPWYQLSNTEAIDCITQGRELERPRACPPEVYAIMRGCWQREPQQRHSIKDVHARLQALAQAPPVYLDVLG
PKBγ(h), sequence (Q9Y243 whole entry): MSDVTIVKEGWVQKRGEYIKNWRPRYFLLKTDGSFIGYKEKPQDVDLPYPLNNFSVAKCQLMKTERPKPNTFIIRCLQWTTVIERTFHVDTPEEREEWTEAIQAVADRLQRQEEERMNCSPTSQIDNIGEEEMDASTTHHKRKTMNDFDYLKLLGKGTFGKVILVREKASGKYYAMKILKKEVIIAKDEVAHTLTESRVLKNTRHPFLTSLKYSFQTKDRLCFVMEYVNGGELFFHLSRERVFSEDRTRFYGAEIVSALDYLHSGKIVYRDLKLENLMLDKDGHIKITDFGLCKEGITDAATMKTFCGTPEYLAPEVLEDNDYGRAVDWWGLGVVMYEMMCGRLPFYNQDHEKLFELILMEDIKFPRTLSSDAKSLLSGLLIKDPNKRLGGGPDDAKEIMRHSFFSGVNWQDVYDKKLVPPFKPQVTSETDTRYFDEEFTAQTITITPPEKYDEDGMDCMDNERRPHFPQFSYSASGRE
SIK(h), sequence (P57059 whole entry): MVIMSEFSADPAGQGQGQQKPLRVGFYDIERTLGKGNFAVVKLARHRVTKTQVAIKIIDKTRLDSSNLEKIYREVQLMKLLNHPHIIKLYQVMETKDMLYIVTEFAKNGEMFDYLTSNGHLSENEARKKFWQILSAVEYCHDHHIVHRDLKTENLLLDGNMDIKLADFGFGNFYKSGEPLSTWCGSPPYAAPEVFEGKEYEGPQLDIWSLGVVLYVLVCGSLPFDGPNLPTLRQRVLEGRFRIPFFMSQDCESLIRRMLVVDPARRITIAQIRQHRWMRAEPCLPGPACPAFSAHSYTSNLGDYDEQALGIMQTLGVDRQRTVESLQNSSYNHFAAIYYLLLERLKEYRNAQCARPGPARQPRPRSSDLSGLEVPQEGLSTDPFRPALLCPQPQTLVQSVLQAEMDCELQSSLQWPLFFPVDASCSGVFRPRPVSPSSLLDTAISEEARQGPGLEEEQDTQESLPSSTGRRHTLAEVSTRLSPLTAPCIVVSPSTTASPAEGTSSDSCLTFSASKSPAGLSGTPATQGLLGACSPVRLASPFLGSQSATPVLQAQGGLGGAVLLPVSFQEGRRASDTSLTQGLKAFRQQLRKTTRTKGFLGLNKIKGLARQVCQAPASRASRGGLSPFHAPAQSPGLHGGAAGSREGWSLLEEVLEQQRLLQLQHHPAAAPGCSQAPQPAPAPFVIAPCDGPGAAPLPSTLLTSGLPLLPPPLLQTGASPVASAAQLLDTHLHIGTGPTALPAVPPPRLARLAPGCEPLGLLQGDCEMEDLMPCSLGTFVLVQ

| Compound | Abl(M351T)(h) % activity (Abl(M351T)(h)) [%] | EphA4(h) % activity (EphA4(h)) [%] | SIK(h) % activity (SIK(h)) [%] | Ret(V804L)(h) % activity (Ret(V804L)(h)) [%] | PKG1β(h) % activity (PKG1β(h)) [%] | MRCKα(h) % activity (MRCKα(h)) [%] | TLK2(h) % activity (TLK2(h)) [%] | PKA(h) % activity (PKA(h)) [%] | Abl(T315I)(h) % activity (Abl(T315I)(h)) [%] | PKD2(h) % activity (PKD2(h)) [%] | PKBγ(h) % activity (PKBγ(h)) [%] | TrkA(h) % activity (TrkA(h)) [%] | Met(D1246H)(h) % activity (Met(D1246H)(h)) [%] | Ret(h) % activity (Ret(h)) [%] | Fms(h) % activity (Fms(h)) [%] | Arg(h) % activity (Arg(h)) [%] | protein level of α-smooth muscle actin (α-SMA) [1] | protein level of fibronectin (conditioned media) [2] |
| --- | --- | --- | --- | --- | --- | --- | --- | --- | --- | --- | --- | --- | --- | --- | --- | --- | --- | --- |
| HRRIKAWLKKIKALARQLGVAA (Mammalian) [MMI-0500] | 61 | 48 | 40 | 20 | 24 | 5 | 133 | 118 | 16 | 10 | 20 | 24 | 150 | 174 | 14 | 22 | – | – |
| CC(C)C[C@H](NC(=O)[C@H](C)NC(=O)[C@H](CCCCN)NC(=O)[C@H](C)NC(=O)[C@H](CCCNC(=N)N)NC(=O)[C@H](C)NC(=O)[C@H](CCC(N)=O)NC(=O)[C@H](CCCNC(=N)N)NC(=O)[C@H](C)NC(=O)[C@H](C)NC(=O)[C@H](C)NC(=O)[C@H](CCCNC(=N)N)NC(=O)[C@H](C)NC(=O)[C@@H](N)Cc1ccc(O)cc1)C(=O)N[C@@H](C)C(=O)N[C@@H](CCCNC(=N)N)C(=O)N[C@@H](CCC(N)=O)C(=O)N[C@@H](CC(C)C)C(=O)NCC(=O)N[C@H](C(=O)N[C@@H](C)C(=O)N[C@@H](C)C(=O)O)C(C)C [MMI-0100] (H-YARAAARQARAKALARQLGVAA-OH; N-terminus and C-terminus assumed) | – | – | – | – | – | – | – | – | – | – | – | – | – | – | – | – | decreases in the levels | decreases in the levels |
| FAKLAARLYRKALARQLGVAA [MMI-0300] | 90 | 88 | 66 | 79 | 50 | – | – | – | 97 | 33 | 20 | 25 | 125 | 140 | 45 | 72 | – | – |
| YARAAARQARAKALNRQLGVA (Mammalian) [MMI-0200] | – | 127 | – | 100 | 57 | – | 129 | 110 | 108 | 78 | – | – | 139 | 96 | 92 | 82 | no changes in the protein level | no changes in the protein level |
| KAFAKLAARLYRKALARQLGVAA [MMI-0400] | – | 65 | 68 | 73 | 53 | 97 | 151 | – | – | 25 | 41 | 17 | 68 | 145 | 37 | 84 | – | – |
